# Laboratory results as given in patent publication US12485192B2, “Cellular targeted label delivery system” (CELLIS AG, priority 2016, dated 2025).
# B1: ferritins: recombinant mouse ferritin protein of SEQ ID NO: 4 expressed in E. coli (protein)
# chain: MTTASPSQVRQNYHQDAEAAINRQINLELYASYVYLSMSCYFDRDDVALKNFAKYFLHQSHEEREHAEKLMKLQNQRGGRIFLQDIKKPDRDDWESGLNAMECALHLEKSVNQSLLELHKLATDKNDPHLCDFIETYYLSEQVKSIKELGDHVTNLRKMGAPEAGMAEYLFDKHTLGHGD
# System: CD45+ leukocyte cells (macrophages, monocytes, lymphocytes, granulocytes)
# Assay: Uptake of iron binding proteins by CD45+ leukocyte cells in culture
# Type: cell-based, mouse
# Details: incubation 1-4 hrs, 0.1-0.2 mg/ml protein solution, standard culture conditions; FIG. 5
# Protocol: Obtained cells are incubated in ferritin solution for a time and at the concentration sufficient to ensure proper ratio of ferritin/cell for their full load and also to ensure proper contrast content to obtain proper imaging). The time and concentration may vary depending on the number of molecules encapsulated/adsorbed into the ferritin cage, status of cell activation, condition and number of their intended administration.
# For example, to ensure proper load with ferritins, cells are incubated for 1-4 hrs in ferritin solution 0.2 mg/ml in standard culture conditions. The frame of ferritin concentration may vary at least between 0.01 and 4 mg/ml as well as incubation time (5 min-6 hrs or more). Adjusting time and concentration of ferritin load to cells, the influence of ferritin and treatment conditions on cell viability should be minded.
# Obtained cells are incubated in haemoglobin solution for a time and at the concentration sufficient to ensure proper ratio of haemoglobin/cell for their full load and also to ensure proper contrast content to obtain proper imaging. The time and concentration may vary depending on the number of molecules linked with the haemoglobin molecule, status of cell activation, condition and number of their intended administration. […]
molecule,measurement,value
B1,uptake of iron binding protein by cells,very easily uptake
